Assay [1] addresses T1, soluble human OSMR (Oncostatin M receptor) (human, UniProt Q99650 28-740).
T1 construct: extracellular domain; Bought; also called soluble OSMR
T1 sequence (looked up): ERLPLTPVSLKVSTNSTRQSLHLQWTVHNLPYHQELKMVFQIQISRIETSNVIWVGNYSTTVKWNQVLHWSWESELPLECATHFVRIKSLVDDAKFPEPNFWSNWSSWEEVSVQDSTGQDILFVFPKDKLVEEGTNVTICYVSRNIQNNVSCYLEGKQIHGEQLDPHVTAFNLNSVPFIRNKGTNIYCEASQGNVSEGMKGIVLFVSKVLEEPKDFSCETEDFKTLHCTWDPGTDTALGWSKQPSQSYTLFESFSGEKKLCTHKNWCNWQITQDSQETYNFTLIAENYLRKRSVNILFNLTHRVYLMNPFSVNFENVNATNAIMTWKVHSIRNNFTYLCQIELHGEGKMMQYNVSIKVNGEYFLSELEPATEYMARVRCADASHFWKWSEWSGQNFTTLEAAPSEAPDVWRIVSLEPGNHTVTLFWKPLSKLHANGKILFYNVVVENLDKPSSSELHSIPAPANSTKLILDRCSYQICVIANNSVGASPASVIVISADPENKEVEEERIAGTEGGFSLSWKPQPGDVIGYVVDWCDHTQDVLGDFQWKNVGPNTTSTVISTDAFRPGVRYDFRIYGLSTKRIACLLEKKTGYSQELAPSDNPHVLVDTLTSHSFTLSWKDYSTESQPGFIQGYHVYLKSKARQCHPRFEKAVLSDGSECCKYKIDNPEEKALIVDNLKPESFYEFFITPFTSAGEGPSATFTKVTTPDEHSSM
In words: SPR (SensiQ), LIF immobilised, soluble OSMR injected (150nM, 100nM, 50nM, 25nM, 10nM, 5nM). The procedure: (§1) Surface Plasmon Resonance (SPR): Kinetic parameters of the interactions between receptor domains and the cytokines LIF, OSM-WT, OSM-M1 or OSM-M2 were analyzed by SPR using the SENSIQ® system (ICX Technologies, Oklahoma City, Okla.) as described by the manufacturer protocol. Briefly, a carboxyl sensor with two channels was installed in SENSIQ® and allowed to thermally equilibrate for about 15 minutes. The channels were initially cleaned with a 3 minute injection of 0.1 M HCl. An activation solution of 2 mM 1-Ethyl-3-[3-dimethylaminopropyl]carbodiimide hydrochloride (EDC) and 0.5 mM N-hydroxysulfo succinimide (NHS) was prepared in deionized water immediately before injection. Activation solution was injected over both channels for approximately 3 minutes followed by a 10 minute injection of 50 μg/mL cytokine (LIF, OSM-WT, OSM-M1 or OSM-M2) in 10 mM acetate buffer, pH 5.0, over channel 1. […] Unreacted NHS esters were capped with a 3 minute injection of 1 M ethanolamine, pH 8.0, over both channels. […] A concentration series of soluble LIFR (# 249-LR-050/CF, R&D Systems, Minneapolis, Minn.), soluble OSMR (# 4389-OR-50, R&D Systems, Minneapolis, Minn.) or soluble gp130 (# 228-GP-050/CF, R&D Systems, Minneapolis, Minn.) in running buffer (10 mM HEPES pH 7.4, 150 mM NaCl, 3.4 mM EDTA, 0.005% Tween-20) were injected over both channels at a flow rate of 25 μl/min. […]

The target of assay [2] is T1, soluble human OSMR (Oncostatin M …). In words: SPR (SensiQ), OSM-M1 immobilised, soluble OSMR injected (150nM, 100nM, 50nM, 25nM, 10nM, 5nM). The procedure:
as §1

Experimental findings from patent publication US20100310509A1 (published 2010) are described below.

B1: human leukemia inhibitory factor (LIF) (ligand)
chain: not shown
notes: Purified recombinant protein; also called hLIF
Turning to B1, the binding result in assay [1] is recorded as “no binding (tested: 150 nM)”.

B2: OSM-M1 (OSM with BC loop truncated from 12 to 7 amino acids) (ligand)
chain: AAIGSCSKEYRVLLGQLQKQTDLMQDTSRLLDPYIRIQGLDVPKLREHCRERPGAFPSEETLRGLGRRGFLQTLNATLGCVLHRLADLEQRLGAPSGLNIEDLEKLQMARPNILGLRNNIYCMAQLLDNSDTAEPTKAGAGASQPPTPTPASDAFQRKLEGCRFLHGYHRFMHSVGRVFSKWGESPN
notes: Made from the 'AGA' modified OSM template; lacks the thrombin site; not shown: N-terminal FLAG tag left after thrombin removal of GST
For B2, the binding result in assay [2] is listed as “no binding (tested: 150 nM)”.
